Assay results from patent US20040259196A1, “T cell receptor variants expressed in mesenchymal cells and uses thereof” (priority 2001, published 2004).
Values belong to the molecule of their own block, whether it stands above or below them.

Tests used:
[1] = system: anti-peptide SEQ ID NO:37 antibody; test: Competition of antibody binding by pre-incubation with the immunizing peptide; parameters: species or system rabbit; details: pre-incubation of purified immune serum with soluble peptide, 30 min, room temperature
Text: FIGS. 2A-2F show flow cytometric analysis of J^intJ-Cβ2 expression by mesenchymal cells. Mouse embryonic fibroblasts (MEF) (2E) and different MBA-13 cell strains (1-3; 2A-2C, respectively) were stained with preimmunized (histogram I) or immunized (histogram II) purified antibodies from rabbit serum. The rabbits were immunized with a synthetic segment of SEQ ID NO:2, namely SEQ ID NO:37, with the sequence LAEPRGFVCGVE. As a second antibody, we used Fab FITC conjugated donkey anti-rabbit IgG. Staining with second antibody only gave a histogram shown in histogram III. Cells stained with rabbit polyclonal antibodies to irrelevant peptide 1121 of the sequence RGGGGGRGGLHD, similarly produced and purified, served as negative control (histogram IV). Competition of antibody binding was performed by pre-incubation of the purified immune serum with the specific immunizing peptide SEQ ID NO:37 for 30 min at room temperature (2D, histogram). Competition with irrelevant peptide 1121 served as negative control (data not shown). The results of one experiment, out of three performed, are shown.
This strongly supports the conclusion that J^int-Jβ2.6-C protein is present on the surface of the MBA-13 cells. It is noteworthy that thymocytes do express J^int-Jβ2.6-C on the mRNA level but are not reactive with the antibody (FIGS. 2F and 3). […]

[2] = target: J^int-Jβ2.6-C protein (truncated mesenchymal TCRβ lacking the V region) (mouse); test: flow cytometry on MBA-13 cells
293T cells = test: Cell cycle flow cytometric analysis of transfected 293T cells; type: cell-based, human; details: 293T cells co-transfected with pTα
Text: FIG. 13 Recombinant mesenchymal TCRβ (GFP-J^int-Jβ2.6-C) in a preTCR-like complex causes apoptotic cell death upon overexpression. (A) Immunofluorescence analysis of cells transfected with cDNA constructs encoding a fusion protein of J^int-Jβ2.6-C linked to GFP, together with pTα HA vector. (B) Western blot analysis of extracts from 293T cells transfected with GFP-J^int-Jβ2.6-C together with HA-pTα (lane 1). Control GFP and HA vectors (lane 2), GFP vector and HA-pTα0 (lane 3), HA vector and GFP-J^int-Jβ2.6-C (lane 4) and untransfected cells (lane 5). Immunoblotting was performed with an anti-GFP monoclonal antibody. The position of the fusion protein, GFP-J^int-Jβ2.6-C is indicated (GFP-J^int) as is the position of GFP free protein (GFP). (C) Cell cycle flow cytometric analysis of 293T cells transfected with the indicated vectors. The cell cycle analysis of GFP negative cells that were treated with GFP-J^int-Jβ2.6-C and pTα but remained untransfected (C-I) serves as a representative control; similar patterns were observed following transfection with empty vectors or separately with GFP-J^int-Jβ2.6-C and pTα. […]
Next, we examined the results of overexpression of J^int-Jβ2.6-Cβ. A cDNA construct encoding a fusion protein of J^int-Jβ2.6-C N-terminally linked to green fluorescence protein (GFP) was transfected along with pTα into human 293T cells (FIG. 13). […]

Molecule: LAEPRGFVCGVE (listed as Mus musculus) [immunizing peptide]
competition of antiserum staining of MBA-13 cells [1]: reduced the ability of the antiserum to stain the cells

percent of the cell population stained [2]: 34%
Molecule: hamster anti-mouse TCRβ monoclonal antibody, clone H57-597

B1: GFP-J^int-Jβ2.6-Cβ: fusion protein of J^int-Jβ2.6-C N-terminally linked to green fluorescence protein (GFP), expressed from a cDNA construct (protein)
chain: MGEYLAEPRGFVCGVEPLCSYEQYFGPGTRLTVLEDLRNVTPPKVSLFEPSKAEIANKQKATLVCLARGFFPDHVELSWWVNGKEVHSGVSTDPQAYKESNYSYCLSSRLRVSATFWHNPRNHFRCQVQFHGLSEEDKWPEGSPKPVTQNISAEAWGRADCGITSASYHQGVLSATILYEILLGKATLYAVLVSGLVLMAMVKKKNS
modifications: left off: large carriers
notes: fusion protein of J^int-Jβ2.6-C N-terminally linked to green fluorescence protein (GFP), expressed from a cDNA construct
shift of the population to sub-G1, indicating massive apoptosis (293T cells): 59%
